# Assay results reported in paper PMC3462211, “3D Domain Swapping Causes Extensive Multimerisation of Human Interleukin-10 When Expressed In Planta” (PLoS ONE, 2012).
# B1: plant produced human interleukin-10 (natural protein, UniProt P22301 19-178, looked up)
# chain: SPGQGTQSENSCTHFPGNLPNMLRDLRDAFSRVKTFFQMKDQLDNLLLKESLLEDFKGYLGCQALSEMIQFYLEEVMPQAENQDPDIKAHVNSLGENLKTLRLRLRRCHRFLPCENKSKAVEQVKNAFNKLQEKGIYKAMSEFDIFINYIEAYMTMKIRN
# notes: signal peptide in the construct; human interleukin-10, complete native open reading frame (178 amino acids including the N-terminal signal peptide); the NcoI site adds two extra amino acids to the N-terminus of the signal peptide; Secreted through its own signal peptide; also called hIL-10; human IL-10; source: Nicotiana benthamiana leaves, agro-infiltrated (transient), in desalted crude extract
# B2: recombinant E. coli produced human IL-10 (natural protein, UniProt P22301 19-178, looked up)
# chain: SPGQGTQSENSCTHFPGNLPNMLRDLRDAFSRVKTFFQMKDQLDNLLLKESLLEDFKGYLGCQALSEMIQFYLEEVMPQAENQDPDIKAHVNSLGENLKTLRLRLRRCHRFLPCENKSKAVEQVKNAFNKLQEKGIYKAMSEFDIFINYIEAYMTMKIRN
# notes: human interleukin-10, recombinant, E. coli produced, 18 kDa on the blot; also called r hIL-10; E. coli produced hIL-10; source: bought: R&D Systems (recombinant, E. coli produced)
# How the values were obtained:
# [1] = biological target: human IL-10 fused to the C-terminus of constant domains 2 and 3 of human immunoglobulin A2m1 (Fcα-hIL-10), plant produced (human) (UniProt P22301); assay: non-reducing SDS-PAGE with Western blot; soluble plant proteins (crude leaf extract, desalted on G25 Sephadex, filter sterilised) separated under non-reducing conditions on a NuPAGE 12% Bis-Tris gel; detected with antibodies against hIL-10 or IgA
# [2] = biological target: human IL-10^mono fused to the C-terminus of constant domains 2 and 3 of human immunoglobulin A2m1 (Fcα-hIL-10^mono), plant produced (human) (UniProt P22301); assay: as above
# [3] = biological target: the molecule itself; assay: as above
# [4] = biological target: the molecule itself; assay: non-reducing SDS-PAGE with Western blot; 50 ng recombinant E. coli produced hIL-10 (R&D Systems) separated under non-reducing conditions on a NuPAGE 12% Bis-Tris gel; detected with an antibody against hIL-10
molecule,measurement,setting,value
"human IL-10 fused to the C-terminus of constant domains 2 and 3 of human immunoglobulin A2m1 (Fcα-hIL-10), plant produced (from UniProt P22301 19-178) (Fc fusion)",stoichiometry N,[1],2
"human IL-10^mono fused to the C-terminus of constant domains 2 and 3 of human immunoglobulin A2m1 (Fcα-hIL-10^mono), plant produced (from UniProt P22301 19-178) (Fc fusion)",stoichiometry N,[2],2
B1,stoichiometry N,[3],≥ 2
B2,stoichiometry N,[4],≥ 2
